Reference: patent US20250066498A1 (GO THERAPEUTICS, published 2025)

Tests used:
[1] = target: T1, LAMP1-Tn peptide Biotin-CEQDRPSPTTAPPAPPSPSP (human, N-terminal biotin; O-linked GalNAc on the serine at position 7 and the threonines at positions 9 and 10); test: SPR (Biacore), antibody immobilised, peptide as analyte
T1 construct: Synthetic 20-mer glycopeptide made by FMOC synthesis; also called LAMP1 glycopeptide; glycosylated LAMP1 peptide
T1 peptide: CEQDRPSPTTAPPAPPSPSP
Description: Antibody affinity assays can be carried out using surface plasmon resonance (e.g., using a Biacore system (Cytiva)). […] The affinity is determined by fitting the binding curve to a specific model: kinetic fit (1:1 model) or if applicable heterogenous ligand binding model.
To characterize the binding specificities of 3C7, 13C3, and 13G2 for non-glycosylated and Tn-glycosylated LAMP1, flow cytometry analysis of the LAMP1 mouse antibodies on T47D COSMC-KO cells was performed. […] The affinities of 3C7, 13C3, and 13G2 against the LAMP1 glycopeptides were determined by Biacore and Octet. Table 7 summarizes dissociation constants (Kd) for 3C7, 13C3, and 13G2 against different glycoforms of LAMP1 peptide, as well as unglycosylated LAMP1 and MUC1-Tn.

[2] = target: T1, LAMP1-Tn peptide …; test: BLI (Octet), peptide on biosensor, apparent affinity (Example 3)
Description: Antibody affinity and epitope binning of monoclonal antibodies can be assessed against specific antigens using BLI. […] The affinity is determined by fitting the binding curve to a specific model: a 1:1 monovalent model or a 2:1 bivalent model. The error (>95% confidence) is calculated by how close the generated curve matches the model.
To characterize the cross-reactivity between mAb237 the anti-glyco-LAMP1 antibodies 3C7, 13C3, and 13G2, the affinities of mAb237, 3C7, 13C3, and 13G2 against the glycosylated LAMP1 peptide, the unglycosylated LAMP1 peptide, and the podoplanin glycopeptide were determined by Octet. Table 8 summarizes the dissociation constants (Kd) for mAb237, 3C7, 13C3, and 13G2 against the glycosylated LAMP1 peptide, the unglycosylated LAMP1 peptide, and the podoplanin glycopeptide. No cross reactivity was observed despite the sequence similarities observed between mAb237 and 3C7, 13C3, and 13G2.

[3] = target: T1, LAMP1-Tn peptide …; test: BLI (Octet), peptide on biosensor, apparent affinity
[4] = target: T2, LAMP1-Tn (T1) peptide Biotin-CEQDRPSPTTAPPAPPSPSP (human, N-terminal biotin; GalNAc on one threonine (label 'T1'). By the order of items in paragraph 452 and paragraph 453 this is the threonine at position 9); test: as above
T2 construct: Singly glycosylated form of the LAMP1 20-mer
T2 peptide: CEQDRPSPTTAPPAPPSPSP

- Kd [1]: 28.7 nM
- Kd [2]: 13.9 nM
- Kd [3]: 18.2 nM
- Kd [4]: 810 nM
B1: 3C7.2C11.1C9 (antibody, V domains shown)
VH: EVKLEESGGGLVQPGGSMKVSCGASGFTFSDAWMDWVRQSPEKGLEWVAEMRSKAFNHAIYYAESVKGRFTISRDDSKSRVYLQMNLLRPEDTGIYYCTPNWDEGFAYWGQGTLVTVSA
VL: DVMLTQTPLSLPVSLGDQASISCRSSQSLVHSNGNTYLHWYLQKPGQSPKLLINKVSNRFFGVPDRFSGSGSGTDFTLKISRVEAEDLGVYFCSQSTHVPRTFGGGTKLEIK
notes: Mouse monoclonal antibody from a hybridoma (Balb/c mice immunised with KLH-LAMP1-Tn glycopeptide)
